Measurements taken from patent publication US20180057553A1 (UNIVERSITY OF TOKYO, published 2018).

Key:
[1] = biological target: T1, recombinant human TNF-alpha (Life Technologies) (human, UniProt P01375 77-233); experiment: depletion assay: serially diluted conjugate mixed with human TNF-alpha (100% = 6.2 ng/mL), complex adsorbed on diol Sepharose beads, TNF-alpha remaining in the supernatant measured by ELISA; 2nd experiment
Procedure: (§1) The complex of TNF-alpha and the conjugate were then adsorbed using 3 microliters of diol Sepharose beads. Subsequently, TNF-alpha in the supernatant was measured by ELISA, and the percentage of the remaining TNF-alpha was calculated. Experiments were done twice, independently.

[2] = biological target: T1, recombinant human TNF-alpha (Life …); experiment: depletion assay: serially diluted conjugate mixed with human TNF-alpha (100% = 6.2 ng/mL), complex adsorbed on diol Sepharose beads, TNF-alpha remaining in the supernatant measured by ELISA; 1st experiment
Procedure: as §1

[3] = biological target: T1, recombinant human TNF-alpha (Life …); experiment: Biacore SPR: conjugate fixed to the sensor chip via an amino group, recombinant human TNF-alpha as analyte at 0.78-100 nM
Source text: (§2) Recombinant human TNF-alpha (Life Technologies) was used as TNF-alpha.

[4] = biological target: T1, recombinant human TNF-alpha (Life …); experiment: SPR (Biacore), conjugate amine-coupled to chip, TNF-alpha as analyte
Source text: as §2

T1 sequence (P01375 77-233 limits assumed): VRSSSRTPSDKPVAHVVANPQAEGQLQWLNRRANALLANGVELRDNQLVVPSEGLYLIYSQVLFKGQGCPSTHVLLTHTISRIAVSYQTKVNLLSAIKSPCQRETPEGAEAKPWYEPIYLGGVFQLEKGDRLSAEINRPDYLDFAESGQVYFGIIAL

EC50 (read off the curve) [1]: ~0.3 µg/mL
EC50 (read off the curve) [2]: ~0.3 µg/mL
koff [3]: 0.000536 s⁻¹
Kd [4]: 0.468 nM
kon [4]: 1.14e+06 M⁻¹ s⁻¹
B1: conjugate of the extracellular region of human TNF receptor 2 (TNFR2) and mutant recombinant human intelectin-1 (S165A) (receptor)
chain: LPAQVAFTPYAPEPGSTCRLREYYDQTAQMCCSKCSPGQHAKVFCTKTSDTVCDSCEDSTYTQLWNWVPECLSCGSRCSSDQVETQACTREQNRICTCRPGWYCALSKQEGCRLCAPLRKCRPGFGVARPGTETSDVVCKPCAPGTFSNTTSSTDICRPHQICNVVAIPGNASMDAVCTSTSPTRSMAPGAVHLPQPVSTRSQHTQPTPEPSTAPSTSFLLPMGPSPPAEGSTGDGTDEANTYFKEWTCSSSPSLPRSCKEIKDECPSAFDGLYFLRTENGVIYQTFCDMTSGGGGWTLVASVHENDMRGKCTVGDRWSSQQGSKADYPEGDGNWANYNTFGSAEAATSDDYKNPGYYDIQAKDLGIWHVPNKSPMQHWRNSALLRYRTDTGFLQTLGHNLFGIYQKYPVKYGEGKCWTDNGPVIPVVYDFGDAQKTASYYSPYGQREFTAGFVQFRVFNNERAANALCAGMRVTGCNTEHHCIGGGGYFPEASPQQCGDFSGFDWSGYGTHVGYSSSREITEAAVLLFYR
notes: also called conjugate of TNFR2 and intelectin
